Several values for one entry are separate records, joined by “and”; a condition that tells them apart may be missing. Equal values may be shown once.
Columns and labels:
Assay in all cases: BLI
Conditions in all cases: both partners purified
fHbp m001928 = target: T1, fHbp m001928 (Neisseria meningitidis; fHbp …, chimera)
T1 chain: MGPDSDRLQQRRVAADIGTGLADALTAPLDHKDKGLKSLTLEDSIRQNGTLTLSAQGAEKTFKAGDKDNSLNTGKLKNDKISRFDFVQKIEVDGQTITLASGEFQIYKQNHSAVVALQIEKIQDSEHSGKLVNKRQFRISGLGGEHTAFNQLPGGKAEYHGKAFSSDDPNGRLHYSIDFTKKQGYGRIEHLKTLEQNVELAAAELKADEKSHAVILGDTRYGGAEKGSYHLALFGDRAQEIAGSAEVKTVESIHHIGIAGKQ

fHbp m002332 = target: T2, fHbp m002332 (Neisseria meningitidis; fHbp …, chimera)
T2 chain: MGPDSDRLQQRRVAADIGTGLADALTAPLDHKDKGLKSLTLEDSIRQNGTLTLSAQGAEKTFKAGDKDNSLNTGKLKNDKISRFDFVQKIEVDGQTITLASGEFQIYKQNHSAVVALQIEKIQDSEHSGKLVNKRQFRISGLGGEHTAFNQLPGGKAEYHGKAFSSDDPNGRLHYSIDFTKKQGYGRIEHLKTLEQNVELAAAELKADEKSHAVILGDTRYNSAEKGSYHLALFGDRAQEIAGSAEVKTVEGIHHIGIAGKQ

fHbp m002252 = target: T3, fHbp m002252 (Neisseria meningitidis; fHbp …, chimera)
T3 chain: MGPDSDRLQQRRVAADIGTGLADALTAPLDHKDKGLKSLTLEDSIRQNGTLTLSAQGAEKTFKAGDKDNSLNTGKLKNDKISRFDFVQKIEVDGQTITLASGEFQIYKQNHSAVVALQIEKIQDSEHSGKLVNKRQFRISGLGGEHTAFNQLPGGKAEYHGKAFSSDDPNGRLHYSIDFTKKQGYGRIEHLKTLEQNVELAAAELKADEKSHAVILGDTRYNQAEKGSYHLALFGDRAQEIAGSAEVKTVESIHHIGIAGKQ

fHbp m002392 = target: T4, fHbp m002392 (Neisseria meningitidis; fHbp …, chimera)
T4 chain: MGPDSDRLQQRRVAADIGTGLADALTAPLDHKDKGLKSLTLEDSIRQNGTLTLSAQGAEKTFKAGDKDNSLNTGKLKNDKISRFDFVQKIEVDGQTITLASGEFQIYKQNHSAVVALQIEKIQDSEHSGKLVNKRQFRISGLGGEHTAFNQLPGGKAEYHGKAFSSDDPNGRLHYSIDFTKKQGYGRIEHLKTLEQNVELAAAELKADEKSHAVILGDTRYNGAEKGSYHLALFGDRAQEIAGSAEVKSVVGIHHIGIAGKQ

fHbp m002420 = target: T5, fHbp m002420 (Neisseria meningitidis, designed fHbp …, chimera)
T5 chain: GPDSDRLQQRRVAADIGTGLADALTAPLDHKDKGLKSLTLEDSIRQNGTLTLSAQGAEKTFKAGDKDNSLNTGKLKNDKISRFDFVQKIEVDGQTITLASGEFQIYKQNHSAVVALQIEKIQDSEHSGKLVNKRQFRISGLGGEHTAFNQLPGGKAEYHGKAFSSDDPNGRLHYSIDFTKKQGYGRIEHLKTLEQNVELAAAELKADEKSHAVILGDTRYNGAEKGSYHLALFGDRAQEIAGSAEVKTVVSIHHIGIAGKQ

fHbp m002335 = target: T6, fHbp m002335 (Neisseria meningitidis; fHbp …, chimera)
T6 chain: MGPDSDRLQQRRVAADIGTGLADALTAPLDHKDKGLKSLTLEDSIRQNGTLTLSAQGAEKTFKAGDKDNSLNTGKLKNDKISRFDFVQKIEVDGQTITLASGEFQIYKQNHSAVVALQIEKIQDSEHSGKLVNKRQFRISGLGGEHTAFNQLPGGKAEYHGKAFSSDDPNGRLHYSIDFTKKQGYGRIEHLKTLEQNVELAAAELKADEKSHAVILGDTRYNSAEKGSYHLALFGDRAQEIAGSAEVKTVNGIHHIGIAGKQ

fHbp m002413 = target: T7, fHbp m002413 (Neisseria meningitidis, designed fHbp …, chimera)
T7 chain: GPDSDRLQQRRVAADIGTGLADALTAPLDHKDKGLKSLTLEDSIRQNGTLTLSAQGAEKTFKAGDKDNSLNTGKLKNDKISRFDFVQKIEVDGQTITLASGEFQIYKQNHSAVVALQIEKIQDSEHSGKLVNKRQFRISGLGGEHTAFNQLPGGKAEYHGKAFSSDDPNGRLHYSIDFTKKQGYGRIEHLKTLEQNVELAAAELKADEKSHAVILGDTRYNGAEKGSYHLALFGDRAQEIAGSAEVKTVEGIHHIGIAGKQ

fHbp m001927 = target: T8, fHbp m001927 (Neisseria meningitidis; fHbp …, chimera)
T8 chain: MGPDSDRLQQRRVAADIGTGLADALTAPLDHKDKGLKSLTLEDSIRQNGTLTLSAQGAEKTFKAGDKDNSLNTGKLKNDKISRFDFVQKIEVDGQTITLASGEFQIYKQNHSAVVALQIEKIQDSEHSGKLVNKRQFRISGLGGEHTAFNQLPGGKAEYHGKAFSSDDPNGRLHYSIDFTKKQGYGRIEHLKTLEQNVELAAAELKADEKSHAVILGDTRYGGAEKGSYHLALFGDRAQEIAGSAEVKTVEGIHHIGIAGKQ

fHbp m002389 = target: T9, fHbp m002389 (Neisseria meningitidis; fHbp …, chimera)
T9 chain: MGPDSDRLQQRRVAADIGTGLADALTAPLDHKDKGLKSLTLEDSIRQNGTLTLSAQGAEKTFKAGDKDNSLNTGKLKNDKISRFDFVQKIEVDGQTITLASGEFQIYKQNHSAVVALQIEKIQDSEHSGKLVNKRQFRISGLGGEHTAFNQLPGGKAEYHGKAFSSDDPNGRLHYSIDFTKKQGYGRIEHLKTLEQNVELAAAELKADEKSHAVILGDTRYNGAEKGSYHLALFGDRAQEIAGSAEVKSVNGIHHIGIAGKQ

Binder | Kd (fHbp m001928) | koff (fHbp m001928) | kon (fHbp m001928) | Kd (fHbp m002332) | koff (fHbp m002332) | kon (fHbp m002332) | Kd (fHbp m002252) | koff (fHbp m002252) | kon (fHbp m002252) | Kd (fHbp m002392) | koff (fHbp m002392) | kon (fHbp m002392) | Kd (fHbp m002420) | koff (fHbp m002420) | kon (fHbp m002420) | Kd (fHbp m002335) | koff (fHbp m002335) | kon (fHbp m002335) | Kd (fHbp m002413) | koff (fHbp m002413) | further results
mAb 1E6 (human) (antibody, V domains shown, source: Expi293, purified (MabSelect SuRe, SEC); copies: 2 + 2) VH: EVQLVQSGAEVKKPGSSVKVSCKASGGTVIDYPITWVRQAPGQGLEWVGGFVPLFRTSNYGQKFQGRVTITADKSTSTASMELNSLTSEDTAIYYCARGDTAMGPFDYWGQGTLVTVSS VL: SYVLTQPPSLSVAPGKTATLTCGGNNIAGKTVHWYQQRPGQAPVLVISYDSDRPSGIPERFSGSNSANTATLTISRVEAGDEADYYCQVWDRNSDHWVFGGGTKLTVL | 0.174 nM | 0.000163 s⁻¹ | 937300 ± 2910 M⁻¹ s⁻¹ | 0.708 nM | 0.000264 s⁻¹ | 373200 ± 1990 M⁻¹ s⁻¹ | 0.133 nM | 4.06e-05 s⁻¹ | 304600 ± 2710 M⁻¹ s⁻¹ | 0.515 nM | 0.000157 s⁻¹ | 305400 ± 1880 M⁻¹ s⁻¹ | 0.285 nM | 0.000154 s⁻¹ | 542300 ± 2290 M⁻¹ s⁻¹ | 0.137 nM | 0.000102 s⁻¹ | 744000 ± 3230 M⁻¹ s⁻¹ | 0.66 nM | 0.000271 s⁻¹ | kon (fHbp m002413): 410700 ± 2050 M⁻¹ s⁻¹; Kd (fHbp m001927): 0.293 nM; koff (fHbp m001927): 0.000118 s⁻¹; kon (fHbp m001927): 402600 ± 1680 M⁻¹ s⁻¹; Kd (fHbp m002389): 0.818 nM; koff (fHbp m002389): 0.000272 s⁻¹; kon (fHbp m002389): 332200 ± 1430 M⁻¹ s⁻¹
mAb 4B3 (human) (antibody, V domains shown, also called 4B3-2; source: Expi293, purified (MabSelect SuRe, SEC); copies: 2 + 2) VH: QVQLVQSGGGLVKPGGSLRLSCAASGFPFSSYYMSWIRQAPGKGLEWVSDINNSGNVKEYADFVKGRLTISRDNVKNSMYLHMNSLRVEDTAVYYCARNRGRFDVWGQGTLVTVSA VL: EIVMTQSPGTLSLSPGETATLSCRASQMISSPFLAWYQQRRGQAPRLLIYGASTRATDTPDRFRGSGSGTDFILTISRLEPEDFAVYYCQYYDDSPFTFGQGTKLEIK | 4.25 nM | 0.00106 s⁻¹ | 248300 ± 1560 M⁻¹ s⁻¹ | 4.04 nM | 0.00118 s⁻¹ | 291800 ± 1150 M⁻¹ s⁻¹ | 1.27 nM | 0.000415 s⁻¹ | 327400 ± 2090 M⁻¹ s⁻¹ | 2.95 nM | 0.00106 s⁻¹ | 359400 ± 1640 M⁻¹ s⁻¹ | 2.01 nM | 0.000887 s⁻¹ | 441000 ± 4480 M⁻¹ s⁻¹ | 5.08 nM | 0.00109 s⁻¹ | 214100 ± 1500 M⁻¹ s⁻¹ | 4.57 nM and 3.74 nM | 0.00112 s⁻¹ and 0.00115 s⁻¹ | kon (fHbp m002413): 245000 M⁻¹ s⁻¹ and 307000 M⁻¹ s⁻¹; Kd (fHbp m001927): 3.64 nM; koff (fHbp m001927): 0.000943 s⁻¹; kon (fHbp m001927): 259300 ± 1550 M⁻¹ s⁻¹; Kd (fHbp m002389): 4.01 nM and 3.22 nM; koff (fHbp m002389): 0.000912 s⁻¹ and 0.00101 s⁻¹; kon (fHbp m002389): 227000 M⁻¹ s⁻¹ and 315000 M⁻¹ s⁻¹

Source: paper PMC12319226 (Frontiers in Bioinformatics, 2025)
